Results published in PMC10269683, “comCDE (Competence) Operon Is Regulated by CcpA in Streptococcus pneumoniae D39”.

B1: P54 (cre3+cre4) (dsDNA)
DNA 1: TAAGTTAGCTTACAAGAAAAAACATTTTAGGAGATTTTATTATGAAAAACACAG
DNA 2: CTGTGTTTTTCATAATAAAATCTCCTAAAATGTTTTTTCTTGTAAGCTAACTTA
B2: Mut cre1 (dsDNA)
DNA 1: ATATAATAGATGCATGTCATGTGAATTCCACGTTGCATCTAATTAAGTACACTTTGGGAGAAAAAAATGACAGTTGAGA
DNA 2: TCTCAACTGTCATTTTTTTCTCCCAAAGTGTACTTAATTAGATGCAACGTGGAATTCACATGACATGCATCTATTATAT
B3: Mut cre2 (dsDNA)
DNA 1: ATATAATAGCAAAGCTGGGAATTTTCCCGGCTTTTTTCTTAAAAAAGTACACAACGATAGATATTAGGTAGAATGGAGA
DNA 2: TCTCCATTCTACCTAATATCTATCGTTGTGTACTTTTTTAAGAAAAAAGCCGGGAAAATTCCCAGCTTTGCTATTATAT

How the values were obtained:
CcpA [1] = biological target: T1, CcpA (Streptococcus pneumoniae D39, UniProt A0A0H2ZQ65 1-336); assay: EMSA; complex at 1 ug CcpA, 1 ng probe; unlabeled Np54 (100 ng) diminished complex; EMSA: 10 mM Tris-HCl pH 7.4, 1 mM DTT, 1 mM EDTA, 50 mM KCl, 5% glycerol, 50 ug/mL BSA, 0.05% NP-40, 20 min 37 C; footprinting binding 30 min 25 C; details: protein: recombinant; label: 5' biotin; blunt
CcpA [2] = biological target: T1, CcpA; assay: EMSA; increasing CcpA; EMSA: 10 mM Tris-HCl pH 7.4, 1 mM DTT, 1 mM EDTA, 50 mM KCl, 5% glycerol, 50 ug/mL BSA, 0.05% NP-40, 20 min 37 C; footprinting binding 30 min 25 C; details: protein: recombinant; label: biotin; blunt

Binder	binding result (CcpA [1])	binding result (CcpA [2])
B1	binds	–
B2	–	binds
B3	–	binds
